Assay results from patent US20230149543A1 (GlaxoSmithKline, published 2023).

Target: T1, human ICOS (Inducible T-cell COStimulator) receptor on peripheral CD4 and CD8 T cells (human, UniProt Q9Y6W8 21-199)
T1 construct: Native ICOS on T cells of treated subjects; also called ICOS receptor; CD278
T1 sequence: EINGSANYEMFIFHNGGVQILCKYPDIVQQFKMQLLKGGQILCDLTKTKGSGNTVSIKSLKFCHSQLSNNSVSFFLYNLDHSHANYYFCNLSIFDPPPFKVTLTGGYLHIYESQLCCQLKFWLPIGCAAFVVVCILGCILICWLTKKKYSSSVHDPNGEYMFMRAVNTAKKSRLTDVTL
Assay: ICOS receptor occupancy on peripheral CD4 and CD8 T cells of dosed subjects (clinical pharmacodynamic analysis)

B1: H2L5 hIgG4PE (antibody, V domains shown)
VH: QVQLVQSGAEVKKPGSSVKVSCKASGYTFTDYAMHWVRQAPGQGLEWMGLISIYSDHTNYNQKFQGRVTITADKSTSTAYMELSSLRSEDTAVYYCGRNNYGNYGWYFDVWGQGTTVTVSS
VL: EIVLTQSPATLSLSPGERATLSCSASSSVSYMHWYQQKPGQAPRLLIYDTSKLASGIPARFSGSGSGTDYTLTISSLEPEDFAVYYCFQGSGYPYTFGQGTKLEIKR
notes: Humanized IgG4PE (S228P, L235E) monoclonal antibody; also called H2L5 IgG4PE; feladilimab
binding result: binds
